Reference: PMC6472344, “Self-organization of Plk4 regulates symmetry breaking in centriole duplication” (Nature Communications, 2019)
Residue numbers refer to the chain shown, from its start. Numbers in names are those of the source.

Legend:
[1] = biological target: the molecule itself; assay: co-sedimentation; spin-down assay: 500 nM GST-Plk4(Kinase + L1)-His6 incubated at 30 °C for 1 h in kinase buffer (20 mM Tris pH 7.5, 300 or 500 mM NaCl, 30 μM ATP, 5 mM MgCl2, 1 mM β-mercaptoethanol), GST cut off with PreScission protease at 4 °C overnight, centrifuged at 21,500 x g for 10 min; supernatant and pellet by SDS-PAGE and CBB staining
[2] = biological target: the molecule itself; assay: Proteostat aggregation assay (dye fluorescence); 300 nM GST-Plk4 (Kinase + L1)-His6 in 20 mM Tris pH 7.5, 300 mM NaCl, 1 mM β-mercaptoethanol, 0.1 mM MnCl2, 37 °C for 1 h with or without lambda phosphatase; fluorescence normalised to the WT

B1: Plk4 (Kinase + L1)-His6, kinase-dead (D154A), after GST-tag cleavage (domain or fragment, human, UniProt O00444 1-585, looked up)
chain: MATCIGEKIEDFKVGNLLGKGSFAGVYRAESIHTGLEVAIKMIDKKAMYKAGMVQRVQNEVKIHCQLKHPSILELYNYFEDSNYVYLVLEMCHNGEMNRYLKNRVKPFSENEARHFMHQIITGMLYLHSHGILHRDLTLSNLLLTRNMNIKIAAFGLATQLKMPHEKHYTLCGTPNYISPEIATRSAHGLESDVWSLGCMFYTLLIGRPPFDTDTVKNTLNKVVLADYEMPSFLSIEAKDLIHQLLRRNPADRLSLSSVLDHPFMSRNSSTKSKDLGTVEDSIDSGHATISTAITASSSTSISGSLFDKRRLLIGQPLPNKMTVFPKNKSSTDFSSSGDGNSFYTQWGNQETSNSGRGRVIQDAEERPHSRYLRRAYSSDRSGTSNSQSQAKTYTMERCHSAEMLSVSKRSGGGENEERYSPTDNNANIFNFFKEKTSSSSGSFERPDNNQALSNHLCPGKTPFPFADPTPQTETVQQWFGNLQINAHLRKTTEYDSISPNRDFQGHPDLQKDTSKNAWTDTKVKKNSDASDNAHSVKQQNTMKYMTALHSKPEIIQQECVFGSDPLSEQSKTRGMEPPWGYQNR
notes: human Polo-like kinase 4 (Plk4), kinase domain and Linker 1, residues 1-585, kinase-dead; also called KD mutant; KD; source: E. coli BL21 gold (DE3), purified (glutathione sepharose, Ni-agarose); GST cut off with PreScission protease; not shown: GST, N-terminal, cleaved; His6, C-terminal, kept
B1: binds [1].

B2: GST-Plk4 (Kinase + L1)-His6, kinase-dead (D154A) (domain or fragment, human, UniProt O00444 1-585, looked up)
chain: B1 chain
notes: human Polo-like kinase 4 (Plk4), kinase domain and Linker 1, residues 1-585, kinase-dead; also called KD; source: E. coli BL21 gold (DE3), purified (glutathione sepharose, eluted with glutathione; Ni-agarose); not shown: GST, N-terminal, kept; His6, C-terminal, kept
B2: binds [2].

B3: GST-Plk4 (Kinase + L1)-His6, wild type, dephosphorylated with lambda phosphatase (domain or fragment, human, UniProt O00444 1-585, looked up)
chain: B1 chain with A154D
notes: human Polo-like kinase 4 (Plk4), kinase domain and Linker 1, residues 1-585; The same construct as m5 after removal of its autophosphorylation by λPP; also called λPP-treated WT Plk4 fragments; source: E. coli BL21 gold (DE3), purified (glutathione sepharose, eluted with glutathione; Ni-agarose); incubated with lambda phosphatase; not shown: GST, N-terminal, kept; His6, C-terminal, kept
B3: binds [2].
